Results: US12338277

Tests used:
Assay in all cases: cell-based or functional assay
[1] = target: HIV-1 Env of pseudovirus 0815.v3.c3 (HIV-1)
[2] = target: HIV-1 Env of pseudovirus 231966.c02 (HIV-1)
[3] = target: HIV-1 Env of pseudovirus 263-8 (HIV-1)
[4] = target: HIV-1 Env of pseudovirus 3415.v1.c1 (HIV-1)
[5] = target: HIV-1 Env of pseudovirus 620345.c01 (HIV-1)
[6] = target: HIV-1 Env of pseudovirus 62357_14_03_4589 (HIV-1)
[7] = target: HIV-1 Env of pseudovirus 6244_13_85_4576 (HIV-1)
[8] = target: HIV-1 Env of pseudovirus 6811.v7.c18 (HIV-1)
[9] = target: HIV-1 Env of pseudovirus 6952.v1.c20 (HIV-1)
[10] = target: HIV-1 Env of pseudovirus 7030102001E5(Rev-) (HIV-1)
[11] = target: HIV-1 Env of pseudovirus AC10.0.29 (HIV-1)
[12] = target: HIV-1 Env of pseudovirus C3347.c11 (HIV-1)
[13] = target: HIV-1 Env of pseudovirus C4118.c09 (HIV-1)
[14] = target: HIV-1 Env of pseudovirus CAP45.2.00.G3 (HIV-1)
[15] = target: HIV-1 Env of pseudovirus CNE5 (HIV-1)
[16] = target: HIV-1 Env of pseudovirus CNE52 (HIV-1)
[17] = target: HIV-1 Env of pseudovirus Ce0682_E4 (HIV-1)
[18] = target: HIV-1 Env of pseudovirus Ce2060_G9 (HIV-1)
[19] = target: HIV-1 Env of pseudovirus HIV-0013095-2.11 (HIV-1)
[20] = target: HIV-1 Env of pseudovirus HIV-001428-2.42 (HIV-1)
[21] = target: HIV-1 Env of pseudovirus HIV-16845-2.22 (HIV-1)
[22] = target: HIV-1 Env of pseudovirus Q23.17 (HIV-1)
[23] = target: HIV-1 Env of pseudovirus Q451.e2 (HIV-1)
[24] = target: HIV-1 Env of pseudovirus Q769.d22 (HIV-1)
[25] = target: HIV-1 Env of pseudovirus Q842.d12 (HIV-1)
[26] = target: HIV-1 Env of pseudovirus R2184.c04 (HIV-1)
[27] = target: HIV-1 Env of pseudovirus TRJO4551.58 (HIV-1)
[28] = target: HIV-1 Env of pseudovirus ZM197M.PB7 (HIV-1)
[29] = target: HIV-1 Env of pseudovirus ZM247v1(Rev-) (HIV-1)
[30] = target: HIV-1 envelope of pseudovirus 231966.c02 (HIV-1)
[31] = target: HIV-1 envelope of pseudovirus 235-47 (HIV-1)
[32] = target: HIV-1 envelope of pseudovirus 3103.v3.c10 (HIV-1)
[33] = target: HIV-1 envelope of pseudovirus 6240_08_TA5_4622 (HIV-1)
[34] = target: HIV-1 envelope of pseudovirus 7030102001E5(Rev-) (HIV-1)
[35] = target: HIV-1 envelope of pseudovirus 9004SS_A3_4 (HIV-1)
[36] = target: HIV-1 envelope of pseudovirus 928-28 (HIV-1)
[37] = target: HIV-1 envelope of pseudovirus BJOX015000.11.5 (HIV-1)
[38] = target: HIV-1 envelope of pseudovirus C2101.c01 (HIV-1)
[39] = target: HIV-1 envelope of pseudovirus CAP45.2.00.G3 (HIV-1)
[40] = target: HIV-1 envelope of pseudovirus CNE52 (HIV-1)
[41] = target: HIV-1 envelope of pseudovirus CNE58 (HIV-1)
[42] = target: HIV-1 envelope of pseudovirus Ce2010_F5 (HIV-1)
[43] = target: HIV-1 envelope of pseudovirus Ce2060_G9 (HIV-1)
[44] = target: HIV-1 envelope of pseudovirus HIV-0013095-2.11 (HIV-1)
[45] = target: HIV-1 envelope of pseudovirus HIV-001428-2.42 (HIV-1)
[46] = target: HIV-1 envelope of pseudovirus Q259.d2.17 (HIV-1)
[47] = target: HIV-1 envelope of pseudovirus Q842.d12 (HIV-1)
[48] = target: HIV-1 envelope of pseudovirus R1166.c01 (HIV-1)
[49] = target: HIV-1 envelope of pseudovirus X1193_c1 (HIV-1)
[50] = target: HIV-1 envelope spike of pseudovirus CAAN5342.A2 (HIV-1)

PGT121 (antibody) gave an IC80 (TZM-bl neutralization) [1] of 0.105 µg/mL, an IC80 (TZM-bl neutralization) [2] of over 50 µg/mL and an IC80 (TZM-bl neutralization) [3] of 24.6 µg/mL. It also gave an IC80 (TZM-bl neutralization) [4] of over 50 µg/mL, an IC80 (TZM-bl neutralization) [5] of over 50 µg/mL and an IC80 (TZM-bl neutralization) [6] of 45.6 µg/mL. It also gave an IC80 (TZM-bl neutralization) [7] of 1.88 µg/mL, an IC80 (TZM-bl neutralization) [8] of 0.017 µg/mL and an IC80 (TZM-bl neutralization) [9] of 0.605 µg/mL. It also gave an IC80 (TZM-bl neutralization) [10] of 0.043 µg/mL, an IC80 (TZM-bl neutralization) [11] of 0.169 µg/mL and an IC80 (TZM-bl neutralization) [12] of over 50 µg/mL. The IC80 (TZM-bl neutralization) [13] was over 50 µg/mL, the IC80 (TZM-bl neutralization) [14] was 6.54 µg/mL and the IC80 (TZM-bl neutralization) [15] was over 50 µg/mL. For the same substance, the IC80 (TZM-bl neutralization) [16] was 32.9 µg/mL, the IC80 (TZM-bl neutralization) [17] was over 50 µg/mL and the IC80 (TZM-bl neutralization) [18] was over 50 µg/mL. For the same substance, the IC80 (TZM-bl neutralization) [19] was over 50 µg/mL, the IC80 (TZM-bl neutralization) [20] was 0.156 µg/mL and the IC80 (TZM-bl neutralization) [21] was over 50 µg/mL. It also gave an IC80 (TZM-bl neutralization) [22] of 0.031 µg/mL, an IC80 (TZM-bl neutralization) [23] of over 50 µg/mL and an IC80 (TZM-bl neutralization) [24] of over 50 µg/mL. For the same substance, the IC80 (TZM-bl neutralization) [25] was 0.074 µg/mL, the IC80 (TZM-bl neutralization) [26] was over 50 µg/mL and the IC80 (TZM-bl neutralization) [27] was 35.3 µg/mL. The IC80 (TZM-bl neutralization) [28] was over 50 µg/mL, the IC80 (TZM-bl neutralization) [29] was 0.126 µg/mL and the IC50 (TZM-bl neutralization) [30] was over 50 µg/mL. For the same substance, the IC50 (TZM-bl neutralization) [31] was 0.332 µg/mL, the IC50 (TZM-bl neutralization) [32] was 0.042 µg/mL and the IC50 (TZM-bl neutralization) [33] was 0.128 µg/mL. It also gave an IC50 (TZM-bl neutralization) [34] of 0.01 µg/mL, an IC50 (TZM-bl neutralization) [35] of 0.008 µg/mL and an IC50 (TZM-bl neutralization) [36] of over 50 µg/mL. The IC50 (TZM-bl neutralization) [37] was over 50 µg/mL, the IC50 (TZM-bl neutralization) [38] was over 50 µg/mL and the IC50 (TZM-bl neutralization) [39] was 0.086 µg/mL. The IC50 (TZM-bl neutralization) [40] was 3.74 µg/mL, the IC50 (TZM-bl neutralization) [41] was over 50 µg/mL and the IC50 (TZM-bl neutralization) [42] was over 50 µg/mL. The IC50 (TZM-bl neutralization) [43] was over 50 µg/mL, the IC50 (TZM-bl neutralization) [44] was over 50 µg/mL and the IC50 (TZM-bl neutralization) [45] was 0.028 µg/mL. The IC50 (TZM-bl neutralization) [46] was 8.99 µg/mL, the IC50 (TZM-bl neutralization) [47] was 0.023 µg/mL and the IC50 (TZM-bl neutralization) [48] was over 50 µg/mL. The IC50 (TZM-bl neutralization) [49] was 0.045 µg/mL, the IC50 (TZM-bl neutralization assay) [50] was 0.013 µg/mL and the IC80 (TZM-bl neutralization assay) [50] was 0.056 µg/mL.
